The values below come from patent US20150330993A1.

The assay concerns the target purified human dimeric IgA (dIgA) (human). Briefly: ELISA, dIgA held on anti-IgA coated plates, detected with R/HpIgR, anti-secretory component and anti-mouse HRP.

In turn, “chimeric rabbit/human polymeric Ig receptor R/HpIgR (rabbit domain 1, human domains 2-5) (from UniProt P01833 1-638)” yielded a lowest dIgA concentration tested, still detected of 31 ng/mL.
